Data on four molecules can be found in patent US20260347491 (published 2026).

Test [1] addresses T1, human HER2 (human, UniProt P04626). In words: FACS. On the technique in general: A flow cytometer gives signals particle by particle.
Test [2] concerns the target T1, human HER2. In words: FACS. The source holds these as a separate data set.
Test [3] has as its target human 4-1BB (CD137) (human, UniProt Q07011). In words: FACS.
In test [4] the target is T2, human CD32b (FcgRIIb) (human, UniProt P31994).
T2 chain: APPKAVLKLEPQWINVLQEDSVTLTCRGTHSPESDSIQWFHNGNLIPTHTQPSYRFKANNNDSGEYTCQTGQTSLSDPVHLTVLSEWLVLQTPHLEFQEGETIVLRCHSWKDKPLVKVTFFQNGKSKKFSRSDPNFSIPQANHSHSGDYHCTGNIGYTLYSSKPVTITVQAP
In words: FACS, CHOS-hCD32b cells.

Read-outs that look alike come from different tables or passages of the source.

Sequence of human 4-1BB (CD137) (Q07011 24-186): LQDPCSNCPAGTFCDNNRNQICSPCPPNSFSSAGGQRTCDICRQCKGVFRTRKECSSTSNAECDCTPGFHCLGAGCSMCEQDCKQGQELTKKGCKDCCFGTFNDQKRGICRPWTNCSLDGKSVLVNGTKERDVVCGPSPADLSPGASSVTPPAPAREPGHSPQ

B1: HER2xHER2x4-1BB-2 (both HER2 arms) (antibody)
chain 1: not shown
chain 2: not shown
chain 3: EVQLVESGGGLVQPGGSLRLSCAASGFTFTDYTMDWVRQAPGKGLEWVADVNPNSGGSIYNQRFKGRFTLSVDRSKNTLYLQMNSLRAEDTAVYYCARNLGPSFYFDYWGQGTLVTVSS
chain 4: DIQMTQSPSSLSASVGDRVTITCKASQDVSIGVAWYQQKPGKAPKLLIYSASYRYTGVPSRFSGSGSGTDFTLTISSLQPEDFATYYCQQYYIYPYTFGQGTKVEIK
For the molecule B1, the 50% effective concentration (EC50) in test [1] was 2.88 nM; in test [2] it was 1.81 nM.

B2: HER2xHER2x4-1BB-1 (both HER2 arms) (antibody)
chain 1: not shown
chain 2: DIQMTQSPSSLSASVGDRVTITCRASQSVQGAVAWYQQKPGKAPKLLIYSASFLYSGVPSRFSGSRSGTDFTLTISSLQPEDFATYYCQQHSTTPPTFGQGTKVEIK
chain 3: EVQLVESGGGLVQPGGSLRLSCAASGFTFTDYTMDWVRQAPGKGLEWVADVNPNSGGSIYNQRFKGRFTLSVDRSKNTLYLQMNSLRAEDTAVYYCARNLGPSFYFDYWGQGTLVTVSS
chain 4: DIQMTQSPSSLSASVGDRVTITCKASQDVSIGVAWYQQKPGKAPKLLIYSASYRYTGVPSRFSGSGSGTDFTLTISSLQPEDFATYYCQQYYIYPYTFGQGTKVEIK
Take B2: the half-maximal effective concentration (EC50) came out at 2.65 nM in test [1] and 1.82 nM in test [2].

B3: Pertuzumab (antibody, V domains shown)
VH: EVQLVESGGGLVQPGGSLRLSCAASGFTFTDYTMDWVRQAPGKGLEWVADVNPNSGGSIYNQRFKGRFTLSVDRSKNTLYLQMNSLRAEDTAVYYCARNLGPSFYFDYWGQGTLVTVSS
VL: DIQMTQSPSSLSASVGDRVTITCKASQDVSIGVAWYQQKPGKAPKLLIYSASYRYTGVPSRFSGSGSGTDFTLTISSLQPEDFATYYCQQYYIYPYTFGQGTKVEIK
With B3, the binding result in test [3] is listed as “no binding”.

B4: HER2xHER2x4-1BB-1 (full) (antibody)
chain 1: not shown
chain 2: DIQMTQSPSSLSASVGDRVTITCRASQSVQGAVAWYQQKPGKAPKLLIYSASFLYSGVPSRFSGSRSGTDFTLTISSLQPEDFATYYCQQHSTTPPTFGQGTKVEIKRTVAAPSVFIFPPSDEQLKSGRASVVCLLNNFYPREAKVQWKVDNALQSGNSQESVTEQDSKDSTYSLSSRLQLSKADYEKHKVYACEVTHQGLSSPVTKSFNRGEC
chain 3: not shown
chain 4: DIQMTQSPSSLSASVGDRVTITCKASQDVSIGVAWYQQKPGKAPKLLIYSASYRYTGVPSRFSGSGSGTDFTLTISSLQPEDFATYYCQQYYIYPYTFGQGTKVEIKRTVAAPSVFIFPPSDEELKSGTASVQCLLNNFYPREAKVQWKVDNALQSGNSQESVTEQDSKDSTYSLSSELTLSKADYEKHKVYACEVTHQGLSSPVTKSFNRGEC
Molecule B4 gave a half-maximal effective concentration (EC50) in test [4] of 1.06 nM.

As a reminder, the EC50 is the concentration at which the effect is half-maximal. High values mean a need for much substance, low ones an effect from little substance.
